Laboratory results from patent US20130019326.

Legend:
[1] = tested on: FLAG-PPAR gamma, wild type
[2] = tested on: purified histone H1 (Millipore)
[3] = tested on: Rb protein (Cell Signaling Technology)

| Substance | in vitro CDK kinase assay, phosphorylation of the substrate [1] | in vitro CDK kinase assay, phosphorylation of the substrate (FLAG-PPAR gamma S273A) | in vitro CDK kinase assay, phosphorylation of the substrate [2] | in vitro CDK5 kinase assay, phosphorylation of the substrate [3] |
| --- | --- | --- | --- | --- |
| active cdk1/cdc2 kinase | Other members of the cdk protein family did not phosphorylate PPAR gamma | – | – | – |
| active cdk2/cyclin A kinase | Other members of the cdk protein family did not phosphorylate PPAR gamma | – | – | – |
| active cdk2/cyclin E kinase | Other members of the cdk protein family did not phosphorylate PPAR gamma | – | – | – |
| active cdk4/cyclin D1 kinase | Other members of the cdk protein family did not phosphorylate PPAR gamma | – | – | – |
| active cdk5/p35 kinase | The cdk5 site in murine PPAR gamma can be phosphorylated when incubated in vitro with cdk5 and its activating cofactor p35 | Mutation of serine 273 to alanine completely blocks phosphorylation of PPAR gamma | PPAR gamma is phosphorylated as efficiently under these conditions as is histone H1, a known substrate of the cdk5/p35 complex | incubation with rosiglitazone does not inhibit the ability of cdk5 to phosphorylate the Rb protein |
